PMC5383425, “Differential CLE peptide perception by plant receptors implicated from structural and functional analyses of TDIF-TDR interactions” (PLoS ONE, 2017)
Positions count from the first letter of the chain named. Square brackets hold non-standard residues; d marks the D form. Ends that are not written are not given here. Hyp = O=C(O)[C@@H]1C[C@@H](O)CN1

What was measured:
Experiment in all cases: ITC; 0.5–1 mM peptide titrated into 10–40 μM ecdTDR; 25°C; 10 mM sodium citrate, 100 mM NaCl, pH 5.5; fitted to one set of binding sites; MicroCal Auto-iTC200
Conditions in all cases: both partners purified
ecdTDR R138A mutant = target: T1, ecdTDR R138A mutant (Arabidopsis thaliana, UniProt Q9FII5 30-642, R138A)
T1 construct: TDR/PXY of A. thaliana, extracellular domain, residues 30-642; source: High Five insect cells (baculovirus), secreted, purified as the wild type (Ni-NTA, size-exclusion chromatography)
T1 sequence (looked up): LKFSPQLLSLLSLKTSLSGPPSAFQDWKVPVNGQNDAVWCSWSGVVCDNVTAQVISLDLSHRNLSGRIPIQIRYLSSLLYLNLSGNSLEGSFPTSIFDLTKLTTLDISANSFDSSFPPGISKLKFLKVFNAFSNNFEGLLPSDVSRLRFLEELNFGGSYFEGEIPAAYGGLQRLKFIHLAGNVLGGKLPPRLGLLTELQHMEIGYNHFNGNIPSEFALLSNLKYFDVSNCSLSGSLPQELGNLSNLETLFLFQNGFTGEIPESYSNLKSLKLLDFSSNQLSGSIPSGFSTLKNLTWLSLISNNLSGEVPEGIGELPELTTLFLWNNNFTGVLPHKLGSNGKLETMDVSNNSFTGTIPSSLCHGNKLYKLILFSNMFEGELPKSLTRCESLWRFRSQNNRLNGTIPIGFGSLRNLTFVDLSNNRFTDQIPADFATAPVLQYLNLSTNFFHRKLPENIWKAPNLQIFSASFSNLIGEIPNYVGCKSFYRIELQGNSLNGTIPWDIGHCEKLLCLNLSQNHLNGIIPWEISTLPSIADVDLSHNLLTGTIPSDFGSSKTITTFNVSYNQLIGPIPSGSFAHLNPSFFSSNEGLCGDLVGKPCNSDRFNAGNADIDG

ecdTDR E231A mutant = target: T2, ecdTDR E231A mutant (Arabidopsis thaliana, UniProt Q9FII5 30-642, E231A)
T2 construct: TDR/PXY of A. thaliana, extracellular domain, residues 30-642; source: High Five insect cells (baculovirus), secreted, purified as the wild type (Ni-NTA, size-exclusion chromatography)
T2 sequence (looked up): T1 sequence (looked up) with A109R, E202A

ecdTDR F161A mutant = target: T3, ecdTDR F161A mutant (Arabidopsis thaliana, UniProt Q9FII5 30-642, F161A)
T3 construct: TDR/PXY of A. thaliana, extracellular domain, residues 30-642; source: High Five insect cells (baculovirus), secreted, purified as the wild type (Ni-NTA, size-exclusion chromatography)
T3 sequence (looked up): T1 sequence (looked up) with A109R, F132A

ecdTDR W353A mutant = target: T4, ecdTDR W353A mutant (Arabidopsis thaliana, UniProt Q9FII5 30-642, W353A)
T4 construct: TDR/PXY of A. thaliana, extracellular domain, residues 30-642; source: High Five insect cells (baculovirus), secreted, purified as the wild type (Ni-NTA, size-exclusion chromatography)
T4 sequence (looked up): T1 sequence (looked up) with A109R, W324A

B1: Tracheary Element Differentiation Inhibitory Factor (TDIF) peptide (peptide)
peptide: HEV[Hyp]SG[Hyp]NPISN
notes: TDIF, the 12-residue CLE peptide processed from CLE41 and CLE44 of A. thaliana; printed as HEV(Hyp)SG(Hyp)NPISN; numbers count on: the 12-residue peptide; CLE44 encodes the same peptide; also called wild type TDIF; wtTDIF; source: synthetic peptide (peptide 2.0)
binding result (ecdTDR R138A mutant): binds | binding result (ecdTDR E231A mutant): binds | binding result (ecdTDR F161A mutant): binds | fold lower binding than wild-type ecdTDR (ecdTDR W353A mutant): 8.4 fold
